Molecular target: the molecule itself
Test: cryo-EM structure

B1: Arabidopsis thaliana AKT1 (Arabidopsis K+ transporter 1), construct for the structure of AKT1 alone (natural protein)
chain: not shown
stoichiometry N: 4

Reference: doi:10.1101/2024.12.27.630498 (bioRxiv, 2024)
